In experiment [1] the target is T1, DENV3 Domain III protein (Dengue virus serotype 3).
T1 construct: domain: Domain III; also called TDV3 Domain III
Description: BLI (Octet HTX), mAb coupled to AR2G biosensor, 20 ug/mL Domain III protein, response at 1200 sec.

For experiment [2], the target named is T2, DENV-3 VLP (Dengue virus serotype 3).
T2 construct: also called dengue 3 VLP; DENV-VLP
The experiment is described as follows: BLI (Octet-HTX), IgG from supernatant captured on Protein A biosensor, 5 ug/mL DENV-VLP. For orientation: In BLI a coated tip is dipped into the sample, and binding shifts an interference pattern.

For experiment [3], the target named is T2, DENV-3 VLP. Description: Luminex assay, VLP-conjugated MagPlex beads.
For experiment [4], the target named is T2, DENV-3 VLP. Description: BLI (Octet-HTX), IgG from supernatant captured on Protein A biosensor, 5 ug/mL DENV-VLP, 1:1 model.

A value given as a limit tells only on which side of the number the result lay.

The EC50 is the concentration needed to bring the measured effect to its halfway point. A higher EC50 goes with a less potent agent. The koff is the first-order rate constant of dissociation. Read a high koff as fast dissociation.

B1: DENV3-5D7 (antibody, V domains shown)
VH: QSLEESGGDLVKPGASLTLTCTASGFSFSSGYDMCWVRQAPGKGLEWIACIYITDTGSSYYATWARGRFTISKTSSTSVTLQVTSLTAADTATYFCAKTNYGSGGFAFNLWGPGTLVTVSS
VL: DVVMTQTPASVEARVGGTVTINCQASQSISNLLAWYQQKPGQPPKLLIYRASALESGVPSRFRGSGSGTEFTLTISDLECADAATYYCQCTYGGSSITNWAFGGGTEVVVK
notes: also called clone 5D7
Turning to B1, the “Response (nm)” value in experiment [1] was 0.0178 nm. In addition, the response in experiment [2] is 0.984. Also, the EC50 in experiment [3] worked out at 0.025 µg/mL. In experiment [4], this molecule gave a koff of less than 2e-05 s⁻¹.

B2: DENV3-12H6 (antibody, V domains shown)
VH: QEQLEESGGDLVKPEGSLTLTCKASGIDFSSSYWICWVRQAPGKGLEWIGCIYTGSSTTWYAAWAKGRFTISKPSSTTVTLQMTSLTAADTATYFCARFYDVGVYFNLWGPGTLVTVSS
VL: AIVMTQTPSSKSVPVGDTVTINCQASESISSWLAWYQQKPGQPPKLLIYLASTLASGVPSRFKGSGSGTQFTLTISDVVCDDAATYYCAGYKSSVTDGFAFGGGTEVVVK
Take B2: the “Response (nm)” value in experiment [1] was 0.0148 nm. This molecule also returned a response in experiment [2] of 1.39. For the same molecule, in experiment [3], the 50% effective concentration (EC50) was 0.11 µg/mL. This molecule displayed a koff in experiment [4] of less than 2e-05 s⁻¹.

B3: DENV3-8D4 (antibody, V domains shown)
VH: QEQLEESGGGLVKPGGTLTLTCTASGFSFSNVYYICWVRQAPGKGLEWIGCIGTGDGNTWYASWAKGRFTISKASSTTVILQVTSLTAADTATYFCARDIYSYDNTGVYTVPKLWGPGTLVTVSS
VL: AAVLTQTPSPVSAAVGGTVSISCQSSESVYSNNRLAWYQQKPGQPPKLLIYRASTLESGVPSRFKGSGSGTEFTLTISDVRCDDAATYYCAGGYSGSSDKGFGGGTEVVVK
For B3, the “Response (nm)” value in experiment [1] was determined as 0.248 nm. The same molecule had a response in experiment [2] of 1.51. For the same molecule, a half-maximal response in experiment [3] (EC50) required 0.115 µg/mL. The molecule also came in with a koff in experiment [4] of less than 2e-05 s⁻¹.

The record behind these values is US20260070961A1 (Takeda / Millennium, published 2026).
